Test results taken from patent publication US7144986B2, “Polypeptides comprising IL-6 ligand binding receptor domains” (The United States of America as represented by the …, priority 1999, dated 2006).

Each substance was assayed against recombinant human IL-6 (Homo sapiens, UniProt P05231) (assay: Binding of radioiodinated recombinant human IL-6 to synthetic peptide arrays in 96-well microtiter plates). Details: Example 1, domain I peptides (IL-6 receptor residues 66–86): truncations and alanine replacements; radiolabeled IL-6 remaining after wash.
Method: Synthetic peptide arrays were constructed in 96-well microtiter plates in accordance with the method set forth in WO 91/02714 (Saxinger), and used to test the binding of recombinant human IL-6 that had been labeled with radioactive iodine (radiolabeling by standard methods). After incubating the radiolabeled IL-6 ligand in a well with each synthetic peptide, a washing step was performed to remove unbound label, and the relative level of radioactivity remaining in each well of the plate was evaluated to determine the relative affinity of each peptide for IL-6 ligand.
Each of the four binding domains was analyzed in detail, which is set forth in these examples. First, serial truncations (or nested truncations) were performed from each end of the peptides to determine the location of the critical binding residues within each domain. Second, each amino acid residue in the critical regions of each domain were serially replaced by an alaninyl residue to indicate whether the side-chain of the residue at each particular location is likely to be essential or important to the mechanism of binding.
This example employs essentially the same techniques as Examples 1–4 except that fragments of the β-chain of the IL-6 receptor are used. As is known in the art, the β-chain is shared by multiple receptors. Thus, the identified fragments here are effective inhibitors of a multiplicity of binding reactions in addition to the IL-6 ligand:IL-6 receptor interaction.

Sequence of recombinant human IL-6 (P05231 30-212): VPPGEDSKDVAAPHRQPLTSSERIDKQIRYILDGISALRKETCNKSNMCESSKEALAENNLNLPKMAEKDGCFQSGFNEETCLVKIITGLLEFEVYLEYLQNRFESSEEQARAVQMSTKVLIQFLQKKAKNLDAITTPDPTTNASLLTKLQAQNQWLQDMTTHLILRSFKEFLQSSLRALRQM

Substance	Counts/minute bound [Counts/minute]
AAGSHPSRWAGMGRRLLLRSV [Peptide A1]	10739
AAGSHPSRWAGMGRRLLLRSV [Peptide A17]	10884
AAGSHPSRWAGMGRRLLLRSV [Peptide A33]	10213
AAGSHPSRWAGMGRRL [Peptide A6]	1753

Same assay, conditions: Example 2, domain II peptides (IL-6 receptor residues 136–156): truncations and alanine replacements

Substance	Counts/minute bound [Counts/minute]
PRSTPSLTTKAVLLVRKFQNS [Peptide B1]	10790
PRSTPSLTTKAVLLVRKFQNS [Peptide B33]	11699
PRSTPSLTTKAVLLVRKFQNS [Peptide B17]	12347
TKAVLLVRKFQNS [Peptide B26]	5226
TKAVLLVRKFQNS [Peptide B25]	5753
PRSTPSLTTKAVLL [Peptide B8]	1846

Same assay, conditions: Example 3, domain III peptides (IL-6 receptor residues 246–266): truncations and alanine replacements

Substance	Counts/minute bound [Counts/minute]
SSFYRLRFELRYRAERSKTFT [Peptide C17]	15127
SSFYRLRFELRYRAERSKTFT [Peptide C33]	14610
SSFYRLRFELRYRAERSKTFT [Peptide C1]	14571

Same assay, conditions: Example 4, domain IV peptides, D11–D57, separate experiment: truncations and alanine replacements

Substance	Counts/minute bound [Counts/minute]
GGSLAFGTLLCIAIVLRFKKT [Peptide D11]	20349
LRFKKT [Peptide D42]	1958
GGSLAFGTLLCIAIVLRFKKT [Peptide D43]	20385
GGSLAFGTLLCIAIVLRFKKT [Peptide D27]	21945

Same assay, conditions: Example 5, fragments of the β-chain of the IL-6 receptor

Substance	Counts/minute bound [Counts/minute]
SDKAPCITDWQQEDGTVHRTYLRG [Peptide E47]	2079
LTCNILTFGQLEQNVYGITIISGL [Peptide E11]	1816

Same assay, conditions: receptor sequence taken 21 amino acid residues at a time

Substance	Initial screening of IL-6 receptor primary sequence for binding of IL-6 ligand
PRSTPSLTTKAVLLVRKFQNS [Peptide B1]	active binding sequences
AAGSHPSRWAGMGRRLLLRSV [Peptide A1]	active binding sequences
GGSLAFGTLLCIAIVLRFKKT [Peptide D5]	active binding sequences
SSFYRLRFELRYRAERSKTFT [Peptide C1]	active binding sequences
